Measurements from the DeepSol protein solubility set.

experiment: soluble on expression in E. coli; label from the status in PepcDB or PDB records

Soluble on expression in E. coli, not soluble:
MSLTIVAMNDVVKSFTGDIILEKVSLQLEEGERVGLIGRNGEGKSTILKILKGTEGVDSGIVTSKKGAKIGLLEQLSTVDPNIIVEQYLRTSFGELEELEKELRALEGEMATNSSEKLMNRYGDKMALFGELGGYEMDANLNKVVNGLGIGSLLSQRWGDLSGGEKTKVALAHLLLQKTDLLLLDEPTNHLDLMAVEWLTAFLQHYSGTVLVVSHDRYFLDEVVEKMVELENRELIVYHTNFSGYLKEREERLLREFQDYKDQQKKIKKMQQAIKRLRQWAMQANPPNDAMFRRAKNMERALERMEKVKRPVLTQKQMQLQFDEAGRSGQEVVVMENLSKSFSEKAIVQDVSLQIRQGERVAIIGENGAGKSTLLKIMEGKVVPDVGMIKVGASVKIASLSQQMEELNEKLTVLDAFRDKVAVTEGEARQMLAGFMFYGEMVFRKVGNISGGERMRLRLAQFINMPVNTLILDEPTNHLDIASREILEEAIRAFSGTIITVSHDRYFIDQLCSKVIWLENKQLTVYEGNYSYATSKREGHHHHHH
MSLTLEDIARKLNISKNAVSLALANKPGVSEKTRQLVFQTAKELGYKFKEKEEQKGTIALIMTKNIIEDPYFFSAIVYSVENEIRKEGYDFSLYCISSEDEWNIEEILTSSSFEGIIIVSAISENVIKKIEEKKIPTVVIDNLVDSTCIDTVNTDNYRSTKAAIEYLIKQGFKHIGFIGDVNHAISYRERWEGFMAAHEEFDIEIDKKVCKIEGFKDFSKNPEPEIQAFLKSLEKMPQAFFCVSDLSTLLTASVLKEMGFQIPKDVSIVGFDDIELVKHFKPALSMIHIDRNYYGQRAVKQLLERIKCPNKPVEDVRIFCRLNIRKSIRAEGHHHHHH
MSLTNKELKKNLEDCVNCRLCYKVCPMMNTFGESPKNILRDIDKNKISYDEIAYSCMLCNACTEACPKDINLKEMFQNLRIKSYRENLKNTSKKFNLKVVQNHQKGSFSKFLTSKNNHKKIKRVFIPGCSLSGYNNEIIFKIKDYLIENLGKVEILLKCCGKPSKDIGNLELFESNLNDIENNLKIKEVDEIIVACENCYKTFGSAFKDIKVITLWEVINEFGVPKELKNKYSDLKEEFALHDPCPIKKEEQIHEAVRSILKDLGIKIVEFEKNRSKTECCGCGGMVGVTNKELWLSQKNKRANSTECENIVSYCESCVNTFKSSDKNALHILDFIFNEDVINGKAKSQKNISTINQWINRIKLANKVGKEGHHHHHH
MSLTPRVNSGGAVVADAYGRPLKDLRIAVTPECNLDCFFCHMEGATESGPMRPGSWSPVLSVEDYDIIGEAASRLGVDSFKLTGGEPLIRGDVDKIVAVLARYGEVSMTTNGILLPLKASSLKRAGLARVNVSLHSISEEVYEKITRRRAVKLALKGVEAALKAGLRVKVNMVLLRGLNEGEFWRLLRLAEDLGFDLQVIEVHPAGRGRKVLSSFRRPIDVVEERLSSMAVAVETGRLHNRRVYRLPSGVRVYLVDPVENPVFCMGCYRVRLTWDGRLLPCIYWKGPYPSVAEALKRGGSREEKVWRVMKILLEANALRRPTYLFRLHDGQEPQAPSTGRGLRLTLPGKAKAERLAYSTLKAPLIEG
MSLTQEFIDKVSSYLTPDVDIAPISQGAEAIVFTTTTHPYLPRAKDSHQKYIIKYRPPKRYRHPQIDQALTKHRTLNESRLLAKLYLIPGLCVPQLIACDPYNGFIWLEFLGEDLPGGHGFSNLKNFLWMHDQDPYSDLVATTLRKVGRQIGLLHWNDYCHGDLTSSNIVLVRDGARWTPHLIDFGLGSVSNLVEDKGVDLYVLERAILSTHSKHAEKYNAWIMEGFEEVYREQGAKGAKKLKEVTKRFEEVRLRGRKRSMLGEGHHHHHH
MSLTQHTLWLLRFTYKQLKEKLTVSDSKKLFHEQFPYVIPGLYKRIVDEMLVELNLLNHQNEFIQDDLFCVGLTETFKELTKGYKPEEHLRVLFESLCNSSNFEPKKIKEASKKTLEVYKDKSLKEISILLKQKSDSNLYSSRIMNLGIYLIIANATDFKDIKDPEKNKIISDIINKLNLSFNKAEKDIGIYKSSILKMEQAKELLQEAKIKDKKEKEGHHHHHH

Soluble on expression in E. coli, soluble:
MSLTETLDNTQDLLMDVDKYNFWEVEGEDAAGEVNSKDMDMVGVDEKSGAPVFRLTDNNDEQPLNENENGNFKFKMNTIATENMAYLTEKDKYKLYPSKVPGYDNSREYSSYVSKVFELYNDLDEHRVYSAPTIGIINKSYAREHNYVLNVAFESFVTELNFFIESIKNDPNLINRVLQLEESITILNCLKTIHFTFDSLQNESDSREQFVNSLIDWVNRSDGEPKEEYIEQIFTRNDNIEVFNTLQFWKLVNKLLLRGLFEQALGCLERSKIMDFLKSQCEVSANILGDAIALLEQYPIDSSETFREWKFMVLGLQQTYSNSNTKITGELRDYIEDTLLLIGGNQSKLLQYSSTWYEAYASFYLYYIPTLELSHDYLELALSTHPLDLTKNWEQACVNIINNKIYSILPVLESLDLCTAATTAALCEAKGILENFLDDDTKTFKGNVDKLVTPVHGMASYLLNQFAFELCSQEEKTLWPVAIGLISISPFESASVKRTTISEVLPRFPFSTNDDIEWMLAVCAKWRLPKIAKKIYKILGSKLQAEGNVIESMTNFSKAGEFDIVKNEGHHHHHH
MSLTGANDSNYDPFAGLSFRVGVAENKNTTFRNKMEDVHTYIANFAERVDWGYFAIFDGHAGKDTARWCGNNLHTLLEEEIDRNSDEGSPPPTPITGKDDLREDLYKCFVKADELIEKSGQGKSGCTAAVAVLRWESDNEEPVSHTKSQDGGKFDFKPTKNHKRLLYTSNVGDLRIVLCRAGQAYRLSYDHKATDTHEINRIEDNGGLVLKNRVNGVLAVTRSLGDTYMKLLVIGVPFTTATEITADDEFIIIACDGLWDVVSDKHACKLAAESFKQGYSPLQVAKKLCQFAIELSTTDNVTVMVVQLDNDVFSEGHHHHHH
MSLTGGLFGAKPAGSTTGGLFGANTSTQQPAATQGSGLFGAKPTGTGLFGGQTQGSTTSGASAGGLFGKSANPAPGGAGLFGNTAQSNSVSSNTGGLFGSKPAATGGLFGGQPSAPLSTFGQNPATTSLQTPGTGSLFGAKPVSTIAPNTASQMQQQTGISTTNPYGTNELFTRITIPESITAPSQPRFTKVNTDTKATSLNTAYKLNPKPLFSKGSLPSASIAHATPSIDKAPQNTDKSDNETTLVKFGSSLFNPETDEALITADELLFNPDRKSFKTLLINKKKVNEALLNEKSTSPDKDIKRITFNEKSLLKDEDSVRSSIFDNVLETPTNTENKLSEASSVDHDFNERQEVSRPDLKGDLMPNGISKLPGVKGSDFTQMENGYYISPSLDTLASMSLFQLSSVTNFVVGHKDHGYIEFMEPVNLTDIPLTLICGGIIEFRPRACIVKSGNEAGFHGKGFNVRARIVCYKCFPLDKSTRKPVTNPDHALVKNHIKKFKSMPNCKFESYDPKTGTYVFAVDNAEGHHHHHH
MSLTKFVSAPLICGLALLGALSAAHAQTGIPALPPIAQPLPVPAPAPVTPPAPTVPVPQEPAPVPQPPMPQPSVPQTPAPQKPVTPRPAPAPSRAPLLIQARANVPALVAGKKTTVPVLKTLTIPAERAAQLRQRGEVSASLQADLDTFLKSLAAPRDARFEQQDDGQWAVVQPNGLKVDAQATRAAVAKVLRDPRGVSANVVVTGQVAPQRTLDFFASRGITTFLATGFTSYYGSSPERVKNIHVGAQNFKDRLFEGDVFSFNKFIGPVSERNGYVPGLVIAGDQTASGVGGGICQVSTTVFRTLYGAGLGIVQRQNHSYQVFYYDPQGLDATIYQPQLDLKFANTTGGPIWFQTEWDDQEATLTITAFGQARDYQVQVDAPKTLKTVAPPKDRLIPDASLPAGQRKQVDWAAPGATIEVTRRFTRGGKTFKQDTLRSVYRPWPNIFRVGTKKEGGSHHHHHH
MSLTKPFDVTLTREIIKIESVYAKMIENENILYLRVTNFDKNVVDVASKELKKYPNVKGVILDLRNNPGGLLNQAIGLVNLFVDKGVIVSQKGRIASENQEYKADPKNKISNASLVVLVNGGSASASEIVSGALQDLKRGVIVGENTFGKGSVQQIIPINKTEALRLTIARYYLPSGRTIQAVGVKPDIEVFPGKVNTQEDGFSIKESDLKQHLESELEKIDKNKKEDKQENKDNKNLISQKQINDDAQLKSAIDTIKILNIKQGEGHHHHHH
MSLTKTLIVNAHPDFRNAAHYSVQLEQAFLQLFQTRFPNDTVDVLNLYDTVIPQATVPELLGIWEKQAQHVNLSIEEQRLFAINQQLLQQFKAHHRIVIAMPLHNFNVPARLKDYIDNILVARETFRYTENGSVGLMTDNYRVMLLQASGSIYTRNDRYTPMEFSRLYLDKMFTEIMGFDRFEIVRAQGLQTNGVAVSQALKQAKMDLKAAFERFYDEGHHHHHH
MSLTKVSAFFSTCKAGVFLGWDRNIDTSIAYTDGYSNRLDIISYDLCNWNGNNDSSSISWDSASTIRDLQKPNIPLIKQYKGPYAHLIKNVIISAHMPCPTGGTSNGSISPQDFATLANTKIQDINSSSPWFLQNYKAIVSKVGDGLEYYGHVGTVYFRPFHEVNGNWFWWGDKDVSQYKQLWINLHDYLVSKNSGCRGLTWLKFCYAPNSGKNAALYYPGDDYVDMVGMDAYSDNPSTDTYVKRAYAELTGGTYNGVTYPGIDKPFGFPELGPNVGGDYVDNKNRLIKKFDYKRWSDAIKLNYPKASYFIIWNGGYEPRNNDNGTSLFNMSYEGHHHHHH
MSLTMPVNTIMGLFAKSPIKPLQRHVVCVNECCSHLINFFEVCNKGDWEKAGEIRAQISHLEKEADVLKREIRLKLPRGLFMPVDRSDMLELLTQQDKLANLAKDIAGRVYGRQLVIPEPLQENFIAYVRRCLDAANQAQNVINELDELLETGFKGREVTLVAEMIHQLDVIEDDTDSMQIRLRQQLMAIESKMNPIDVMFLYKILEWVGGIADQAQRVGARLELMLSRSEGHHHHHH
MSLTNIEEFMPEKLAKAIANPLFPELDSLLRSGRHVASEDLDNHALLCEFEHELGLFYQRYNAELVKAPEGFFYLRPRSTSFIARSVLAEIDMLVGKVLCFLYLSPERLAHEGIFTNQELFDELLVLADEQKLMKLVTNRASGSDLDKEKLFDKVRTSLRRLKRLGMIIPVGEQGKFRISEAVFRFGADVRTSDDMKEAQLRLIRDGEAVVVHQEEASQSSLDLDADSNEKPAEEQHELELEGDLLEHHHHHH
MSLTNKKNLRVVALAPTGRYFASIISSLEILETAAEFAEFQGFMTHVVTPNNRPLIGRGGISVQPTAQWQSFDFTNILIIGSIGDPLESLDNIDPALFDWIRELHLKGSKIVAIDTGIFVVAKAGLLQQNKAVMHSYFAHLFGELFPEIMLMTEQKALIDGNVYLSSGPYSHSSVMLEIVEEYFGKHTRNLGNQFLSTIESSGNSHSYCDVFRYMQHRDELILKIQKWILTTDLDIVSISDLANEACLSERQLKRRFKEATSISPLKFIQLGRLSFAKELLRSTKLSIDEVASRSGYVDTQFFRQIFKRENDCSPLEYRKRNQVKAEGHHHHHH
MSLTNLTVHTLEKDDIDSIIEIENLCFPTPWTKESMEGELRNKFAKYVVIKNNNLVVGYGGLWLIIDEGHITNIAVHPEFRGMGIGNKILEELIKLCEKRNIPSMTLEVRISNTIAQNLYKKFGFKEAGVRKKYYGDNDEDALIMWRNEGHHHHHH
